Measurements as given in article PMC5159831, “Harnessing the natural inhibitory domain to control TNFα Converting Enzyme (TACE) activity in vivo” (Scientific Reports, 2016).
Numbering of substitutions follows the chain as printed. Names and notes keep the numbering of the source.

B1: TACE prodomain (TPD), wild type, Asp23-Arg214 (domain or fragment, human, UniProt P78536 23-214, looked up)
chain: DPGFGPHQRLEKLDSLLSDYDILSLSNIQQHSVRKRDLQTSTHVETLLTFSALKRHFKLYLTSSTERFSQNFKVVVVDGKNESEYTVKWQDFFTGHVVGEPDSRVLAHIRDDDVIIRINTDGAEYNIEPLWRFVNDTKDKRMLVYKSEDIKNVSRLQSPKVCGYLKVDNEELLPKGLVDREPPEELVHRVKR
notes: prodomain of human ADAM17/TACE, residues Asp23-Arg214; The methods say Asp24-Arg214, but the DNA fits Asp23; The WT runs as a disulfide-linked dimer without reducing agent; also called WT TPD; TPD WT; source: E. coli BL21 (DE3), pET28, soluble fraction, purified (Ni column, HiTrap Q, Superdex 75)
B2: TACE prodomain (TPD) C184A (domain or fragment, human, UniProt P78536 23-214, looked up)
chain: B1 chain with C162A

Legend:
[1] = target: recombinant TACE catalytic domain; assay: cell-based or functional assay
[2] = target: the molecule itself; assay: SDS-PAGE under non-reducing conditions; purified TPD; 40 kDa band = covalent (disulfide-linked) dimer, 20 kDa band = monomer

recombinant TACE catalytic domain, sequence (P78536 215-671): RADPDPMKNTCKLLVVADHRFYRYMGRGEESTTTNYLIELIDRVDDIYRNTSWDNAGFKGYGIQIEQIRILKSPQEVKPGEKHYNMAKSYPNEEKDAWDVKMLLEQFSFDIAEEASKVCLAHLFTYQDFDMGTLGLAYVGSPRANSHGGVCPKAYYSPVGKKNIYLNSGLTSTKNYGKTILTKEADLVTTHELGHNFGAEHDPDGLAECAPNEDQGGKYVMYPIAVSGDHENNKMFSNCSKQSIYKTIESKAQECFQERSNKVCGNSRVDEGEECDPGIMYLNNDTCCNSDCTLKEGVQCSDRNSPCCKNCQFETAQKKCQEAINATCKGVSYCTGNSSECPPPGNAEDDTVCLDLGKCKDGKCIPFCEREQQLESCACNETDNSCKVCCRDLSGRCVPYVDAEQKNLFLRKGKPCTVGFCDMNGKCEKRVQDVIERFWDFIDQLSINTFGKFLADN

Binder	IC50 of inhibition of the enzyme's hydrolysis of a fluorogenic peptide (10 nM TACE, Mca-PLAQAV-Dpa-RSSSR 10 μM, 37 °C, 30 min pre-incubation with TPD) [1] [nM]	stoichiometry N [2]	IC50 of inhibition of the enzyme's hydrolysis of a fluorogenic peptide (10 nM TACE, 37 °C) [1] [nM]
B1	145	2	–
B2	–	–	33
